Test results from patent US20260209311A1, “MODIFIED G PROTEIN COUPLED RECEPTOR AND USE THEREOF” (ALPHELIX BIOTECH CO., LTD., priority 2023, published 2026).

Legend:
[1] = biological target: MC4R WT; test: SPR; 1:1 kinetic, 25 C
[2] = biological target: MC4R WT; test: SPR; steady state affinity, 25 C

Row | Kd [1] [nM] | Kd [2] [nM] | Substance
1 | 0.00837 | 5.74 | SHU 9119
2 | 35.3 | 9.72 | Setmelanotide
3 | 155 | 313 | a-MSH
